Bridges are numbered along the chain shown (N, C = ends). Where no end group is shown, it is not given here. [ ]: non-standard residue; d: D form. The star is where a group is joined. Acetyl(2-(4-imidazolyl)) = O=C(Cc1c[nH]cn1)*; Aib = CC(C)(N)C(=O)O
T1: human GIP receptor (human, UniProt P48546 22-466)
T1 sequence (looked up): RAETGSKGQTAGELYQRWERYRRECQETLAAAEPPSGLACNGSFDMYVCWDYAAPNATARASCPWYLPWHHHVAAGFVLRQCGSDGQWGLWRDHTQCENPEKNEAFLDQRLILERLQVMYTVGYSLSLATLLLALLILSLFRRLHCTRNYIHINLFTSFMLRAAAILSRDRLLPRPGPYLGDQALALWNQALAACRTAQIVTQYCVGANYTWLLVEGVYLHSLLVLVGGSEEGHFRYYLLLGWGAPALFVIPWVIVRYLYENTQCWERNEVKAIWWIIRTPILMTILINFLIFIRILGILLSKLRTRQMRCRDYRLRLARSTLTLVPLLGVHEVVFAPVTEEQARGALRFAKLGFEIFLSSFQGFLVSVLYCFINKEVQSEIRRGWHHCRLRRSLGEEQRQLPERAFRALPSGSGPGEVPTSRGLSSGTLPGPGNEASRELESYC


Experiments:
Experiment in all cases: cell-based or functional assay
human GCG receptor = human GCG receptor (human, UniProt P47871 26-477)
human GIP receptor = biological target: T1, human GIP receptor
human GLP-1 receptor = human GLP-1 receptor (human, UniProt P43220 24-463)

human GCG receptor, sequence (P47871 26-477): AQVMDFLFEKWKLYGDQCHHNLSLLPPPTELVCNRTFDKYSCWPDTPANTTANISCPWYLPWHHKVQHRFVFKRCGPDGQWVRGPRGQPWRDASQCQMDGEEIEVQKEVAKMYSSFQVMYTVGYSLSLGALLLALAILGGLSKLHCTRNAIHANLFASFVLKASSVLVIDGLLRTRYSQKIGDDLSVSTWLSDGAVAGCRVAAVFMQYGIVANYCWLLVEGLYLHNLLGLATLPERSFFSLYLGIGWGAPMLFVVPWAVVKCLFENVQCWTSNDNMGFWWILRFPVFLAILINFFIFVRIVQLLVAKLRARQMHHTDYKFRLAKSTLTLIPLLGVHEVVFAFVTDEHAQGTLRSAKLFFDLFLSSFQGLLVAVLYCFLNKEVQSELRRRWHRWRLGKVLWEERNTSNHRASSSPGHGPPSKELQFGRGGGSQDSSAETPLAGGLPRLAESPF

| Binder | In vitro activity compared with native peptide (%) vs. Glucagon (human GCG receptor) | In vitro activity compared with native peptide (%) vs. GIP (human GIP receptor) | In vitro activity compared with native peptide (%) vs. GLP-1 (human GLP-1 receptor) |
| --- | --- | --- | --- |
| H[Aib]QGTFTSDCSKYLDERAAQDFVQWLLDGGPSSGAPPPS [Triple agonist of SEQ ID NO: 25] | 0.1% | < 0.1% | 82.6% |
| [Acetyl(2-(4-imidazolyl))]GQGTFTSDLSIQYEEEAQQDFVEWLKDTGPSSGAPPPSHG [Triple agonist of SEQ ID NO: 20] | < 0.1% | < 0.1% | < 0.1% |
| Y[Aib]QGTFTSDYSKYLDECRAKEFVQWLLAQKGKKNDWKHNIT (bridge 16-20) [Triple agonist of SEQ ID NO: 23] | 9.3% | < 0.1% | 4.01% |
| H[Aib]QGTFTSDYSKYLDEKACKEFVQWLLAQ (bridge 16-20) [Triple agonist of SEQ ID NO: 31] | 2.2% | 2.4% | 135% |
| H[Aib]QGTFTSDYSIAMDEIHQKDFVNWLLAQKC (bridge 16-20) [Triple agonist of SEQ ID NO: 33] | < 0.1% | 10.4% | 24.5% |
| Y[Aib]QGTFTSDYSKYLDECRAKEFVQWLKNGGPSSGAPPPS (bridge 16-20) [Triple agonist of SEQ ID NO: 24] | 9.3% | < 0.1% | 41.2% |
| Y[Aib]QGTFTSDYSKYLDECRAKEFVQWLLDHHPSSGQPPPS (bridge 16-20) [Triple agonist of SEQ ID NO: 21] | 267% | 22.7% | 17.8% |
| Y[Aib]QGTFTSDYSKCLDEKRAKEFVQWLLDHHPSSGQPPPS (bridge 16-20) [Triple agonist of SEQ ID NO: 22] | 140% | 59.7% | 20.1% |
| H[Aib]QGTFTSDYSKYLDEKAAKEFVQWLLNTC (bridge 16-20) [Triple agonist of SEQ ID NO: 29] | 6% | < 0.1% | 38.5% |
| H[Aib]QGTFTSDCSKYLDSRAAQDFVQWLLDGGPSSGAPPPS [Triple agonist of SEQ ID NO: 26] | 0.2% | < 0.1% | 64.5% |
| [Acetyl(2-(4-imidazolyl))]GQGTFTSDLSKQMDSERAREFIEWLKNTGPSSGAPPPSHG [Triple agonist of SEQ ID NO: 18] | < 0.1% | < 0.1% | < 0.1% |
| H[Aib]QGTFTSDYSKYLDERACQDFVQWLLDQGGPSSGAPPPS [Triple agonist of SEQ ID NO: 27] | 0.8% | 0.9% | 83.1% |
| H[Aib]QGTFTSDYSKYLDEKRAQEFVCWLLAQKGKKNDWKHNIT [Triple agonist of SEQ ID NO: 28] | 1.6% | < 0.1% | 17.2% |
| {Acetyl(2-(4-imidazolyl))}-GQGTFTSDLSKQMDEERAREFIEWLLAQKPSSGAPPPSHG [Triple agonist of SEQ ID NO: 17] | < 0.1% | < 0.1% | 0.2% |
| H[Aib]QGTFTSDYSKYLDEKAQKEFVQWLLDTC (bridge 16-20) [Triple agonist of SEQ ID NO: 30] | 0.7% | 0.8% | 142% |
| [Acetyl(2-(4-imidazolyl))]GQGTFTSDLSIQYDSEHQRDFIEWLKDTGPSSGAPPPSHG [Triple agonist of SEQ ID NO: 19] | < 0.1% | < 0.1% | < 0.1% |
| H[Aib]QGTFTSDYSKYLDEKACKDFVQWLLDGGPSSGAPPPS (bridge 16-20) [Triple agonist of SEQ ID NO: 32] | 1.7% | 8.8% | 151% |
| H[Aib]QGTFTSDVSSYLLGQAAKQFIAWLVKGGGPSSGAPPPSC [Triple agonist of SEQ ID NO: 3] | < 0.1% | < 0.1% | 1.8% |

From US20240024426A1, “HYPOTENSIVE PHARMACEUTICAL COMPOSITION COMPRISING TRIPLE ACTIVATOR HAVING ACTIVITY FOR ALL OF GLUCAGON, GLP-1, AND GIP RECEPTORS” (HANMI PHARM. CO., LTD., priority 2020, published 2024)
